This is an account of results in patent publication US20250282852A1 (SINOMAB BIOSCIENCE, published 2025).

One experiment addresses T1, CD33 on HMC-3 cells (human, UniProt P20138 18-364).
T1 construct: Native antigen on HMC-3
Description: flow cytometry on fixed HMC-3 cells, 10 µg/mL, anti-human Fc Alexa Fluor 488; graded + (weakest) to +++++ (highest). Here is the method:
The binding of different bispecific antibodies to HMC-3 cells is evaluated. Briefly, HMC-3 cells are seeded onto 6 well plate at a density of […]. After plating and culture for overnight, cells are detached with TrypLE™ Express enzyme. Cells are centrifuged at 300 g for 5 minutes. Cell pellets are washed once with phosphate buffer saline (pH7.4). Cells are fixed with 4% PFA in PBS for 5 minutes at room temperature. Cells are washed once with PBS. Bispecifc antibodies at a concentration of10 μg/mL are incubated with HMC-3 for 1 hour at room temperature. Cells are then washed twice with PBS. Cells are incubated with anti-human Fc Alexafluor 488-conjugated antibody diluted 1:1000 in PBS for 1 hour at room temperature. Cells are washed twice with PBS. Cell are centrifuged at 300 g for 5 minutes. Cell pellet is resuspended with 1% BSA in PBS and proceed to flow cytometry. FIG. 5 illustrates a representative result of HMC-3 cell binding by SM03-Adu.

Experiment [1] deals with T2, human CD22 protein (Sino Biological) (human).
T2 construct: Bought protein coated on ELISA strips
The experiment is described as follows: ELISA on coated human CD22 protein, anti-human Fc HRP detection. The protocol:
The binding of the different bispecific antibodies to their respective antigens is tested with standard ELISA method known to those skilled in the art. Using SM03-Adu as an example, 2 μg/mL of human CD22 protein (Sino Biological) or 5 μg/mL of Aβ oligomer are coated separately onto ELISA stripes (Santa Cruz) overnight at 4° C. or 1 hour at room temperature, respectively. ELISA stripes are blocked with 1% BSA in PBS. Stripes are washed 2 times with PBS. Bispecific antibodies are added in the following concentration, e.g. 10 μg/mL, 2 μg/mL, 0.4 μg/mL, 0.08 μg/mL, 0.016 μg/mL, 0.0032 μg/mL, 0.00064 μg/mL and incubated for 1 hour at room temperature. Stripes are washed 3 times with PBS. Stripes are incubated with anti-human Fc HRP-conjugated antibody diluted 1:6000 in PBS for 1 hour at room temperature. Fifty μL TMB (Invitrogem) is then added. After 30 minutes incubation at room temperature, 50 μL stop solution (2N H2SO4) is added to stop the reaction. Coloration are read by plate reader.

T1 sequence (P20138 18-364 limits assumed): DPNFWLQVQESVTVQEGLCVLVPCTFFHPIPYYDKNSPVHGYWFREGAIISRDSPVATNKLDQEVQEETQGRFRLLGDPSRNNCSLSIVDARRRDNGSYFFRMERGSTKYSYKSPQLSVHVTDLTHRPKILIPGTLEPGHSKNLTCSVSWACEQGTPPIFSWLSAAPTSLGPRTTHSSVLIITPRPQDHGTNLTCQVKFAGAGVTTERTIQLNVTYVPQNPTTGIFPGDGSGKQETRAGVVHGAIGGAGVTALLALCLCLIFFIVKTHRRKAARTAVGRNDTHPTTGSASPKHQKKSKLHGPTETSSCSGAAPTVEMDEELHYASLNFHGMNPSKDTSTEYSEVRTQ

B1: Lin-Adu (bispecific antibody)
heavy: not shown
light: DIQMTQSPSSLSASVGDRVTITCRASESVDNYGISFMNWFQQKPGKAPKLLIYAASNQGSGVPSRFSGSGSGTDFTLTISSLQPDDFATYYCQQSKEVPWTFGQGTKVEIKRTVAAPSVFIFPPSDEQLKSGTASVVCLLNNFYPREAKVQWKVDNALQSGNSQESVTEQDSKDSTYSLSSTLTLSKADYEKHKVYACEVTHQGLSSPVTKSFNRGEC
With B1, in the experiment with CD33 on HMC-3 cells, the binding result is recorded as “binds”.

B2: SM06-Adu (bispecific antibody)
heavy: not shown
light: DIQLTQSPSSLSASVGDRVTISCRASQDISNYLNWYQQKPGKAPKLLIYYTSILHSGVPSRFSGSGSGTEFTLTISSLQPEDFATYFCQQGNTLPWTFGGGTKVEIKRTVAAPSVFIFPPSDEQLKSGTASVVCLLNNFYPREAKVQWKVDNALQSGNSQESVTEQDSKDSTYSLSSTLTLSKADYEKHKVYACEVTHQGLSSPVTKSFNRGEC
For the molecule B2, in experiment [1], the “EC50 (read off the curve)” value was ~0.1 µg/mL.
